The record followed here is US11041003B2, “Crystal structure of Staphylococcus aureus clumping factor A in complex with fibrinogen derived peptide and uses thereof” (THE TEXAS A&M UNIVERSITY SYSTEM, priority 2008, dated 2021).

Test [1] addresses αIIbβ3 (Homo sapiens, UniProt P05106+P08514). The test can be described thus: Integrin (αIIbβ3) inhibition assay: inhibition of full length Fg binding to αIIbβ3. As to conditions: 10 nM full length Fg, inhibitory ELISA type assay. The method, then: For αIIbβ3 inhibition assay. αIIbβ3Immulon 4HBX Microtiter 96-well plates (Thermo) were coated with αIIbβ3 ([…]) in TBS (25 mM Tris, 3 mM KCl, 140 mM NaCl, pH 7.4) over night at 4° C. The wells were washed with TBS containing 0.05% (w/v) Tween-20 (TBST). After blocking with 3% (w/v) BSA dissolved in TBS for 1 h at RT, 10 nM of full length Fg was applied in the presence of either WT γ^1-17, γ^1-17D16A or γ^1-17K12A peptides and plates were incubated at RT for another hour. The bound full length Fg was then detected by goat anti human Fg (1:1000 dilution, Sigma) antibody followed by horseradish peroxidase-conjugated rabbit anti-goat IgG antibody (1:1000 dilution, Cappel). After incubation with 0.4 mg/ml of substrate, o-phenylenediamine dihydrochloride (OPD, Sigma) dissolved in phosphate-citrate buffer, pH 5.0, bound antibodies were determined in an ELISA reader at 450 nm. The proteins, antibodies and peptides were diluted in TBST containing 1% (w/v) BSA, 2 mM MgCl2, 1 mM of CaCl2 and MnCl2.
To examine this possibility, the ability of the synthesized Fg WT g^1-17 and mutated peptides (g^1-17D16A and g^1-17K12A) to inhibit full length Fg binding to αIIbβ3 was analyzed by inhibitory ELISA type assay (FIG. 6).
(An ELISA detects its analyte on a solid surface through an enzyme-linked reagent.)

Test [2] deals with T1, GST-Fg γ^1-17 (Homo sapiens, UniProt P02679).
T1 construct: made in house; host or cells: Escherichia coli
The test can be described thus: ELISA-type binding of ClfA proteins to immobilized GST-Fg γ^1-17. Conditions: GST Fg γ^1-17 coated in microtiter wells; read-out: apparent Kd for GST-Fg γ^1-17.

Where a SMILES comes first, the peptide text is derived from it.

In the case of `CC(C)C[C@H](NC(=O)[C@H](Cc1c[nH]cn1)NC(=O)[C@H](Cc1c[nH]cn1)NC(=O)[C@H](CCC(N)=O)NC(=O)[C@H](CCC(N)=O)NC(=O)CNC(=O)[C@H](CCC(=O)O)NC(=O)CN)C(=O)NCC(=O)NCC(=O)N[C@@H](C)C(=O)N[C@@H](CCCCN)C(=O)N[C@@H](CCC(N)=O)C(=O)N[C@@H](C)C(=O)NCC(=O)N[C@@H](CC(=O)O)C(=O)N[C@H](C(=O)O)C(C)C` [g^1-17] (H-GEGQQHHLGGAKQAGDV-OH; N-terminus and C-terminus assumed), the “inhibition of full length Fg binding to αIIbβ3” value is listed as “completely inhibited” in test [1] and “inhibits” in test [1] (listed as Fg-γ^1-17).
On to “ClfA229-545: recombinant His-tag ClfA construct, residues 229-545 of SEQ ID NO:35, composed only of the N2 N3 domains”, for which the Kd in test [2] was found to be 222 nM.
Consider “g^1-17K12A: Fg γ 395-411 peptide with Lys12→Ala (GEGQQHHLGGAAQAGDV)”, for which the “inhibition of full length Fg binding to αIIbβ3” value was “weakly inhibited” in test [1] and “very little inhibitory effect” in test [1] (listed as γ^1-17K12A).
